Paper PMC6356897

Assays:
[1] = molecular target: Cys39 (UniProt position 40, TWCGPCKMIAP); test: chemical modification (iodoacetamide alkylation) with MALDI-TOF mass spectrometry; conditions: not stated for the alkylation step (pre-reduction at 25 °C); 200 mM acetate/acetic acid (pH 3.5-5.5); 100 mM phosphate (pH 6.0-8.0); 100 mM HEPES-NaOH (pH 7.5-8.5); 100 mM glycine (above pH 8.5); carry-over of 40 mM phosphate pH 7.1 from pre-alkylation; Cys36 pre-alkylated (carbamidomethylated), Cys39 free thiol
[2] = molecular target: Cys36 (UniProt position 37, FTATWCGPCKM); test: as above; conditions: not stated for the alkylation step (pre-reduction at 25 °C); 200 mM acetate/acetic acid (pH 3.5-5.5); 100 mM phosphate (pH 6.0-8.0); 100 mM HEPES-NaOH (pH 7.5-8.5); 100 mM glycine (above pH 8.5); carry-over of 50 mM phosphate pH 7.1 and TCEP from pre-reduction; fully reduced (TCEP), both active-site cysteines free thiols

Substance	pKa [1]	pKa [2]
Thioredoxin h1 (CrTRXh1), monoalkylated at Cys36 (CrTRXh1-CAM) (Chlamydomonas reinhardtii)	9.53 ± 0.12	
Thioredoxin h1 (CrTRXh1) (Chlamydomonas reinhardtii)		6.63 ± 0.13
